Source: patent US20220119534A1 (DRAGONFLY THERAPEUTICS, published 2022)
Values joined by “and” are separate entries in the source; they are usually repeats but may differ in a detail not shown here. Equal values may be shown once.

T1: Human CLEC12A-His (human, UniProt Q5QGZ9 65-265)
T1 construct: Recombinant soluble protein made in house (Dragonfly Tx); The hCLEC12A spot of the HuProt array is written under this molecule as well; also called hCLEC12A-His; hCLEC12A; not shown: His tag
T1 sequence: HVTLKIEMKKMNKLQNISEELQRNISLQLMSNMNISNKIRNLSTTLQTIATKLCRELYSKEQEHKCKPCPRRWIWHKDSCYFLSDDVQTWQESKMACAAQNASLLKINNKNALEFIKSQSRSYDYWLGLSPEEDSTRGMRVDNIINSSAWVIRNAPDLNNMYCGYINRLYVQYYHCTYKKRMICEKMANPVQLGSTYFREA

T2: mFc-hNKG2D (human, UniProt P26718 73-216)
T2 construct: extracellular domain; Made in house (Dragonfly Tx); the order of tag and ECD follows the name mFc-hNKG2D; also called mFc-tagged human NKG2D; not shown: mouse Fc tag
T2 sequence (looked up): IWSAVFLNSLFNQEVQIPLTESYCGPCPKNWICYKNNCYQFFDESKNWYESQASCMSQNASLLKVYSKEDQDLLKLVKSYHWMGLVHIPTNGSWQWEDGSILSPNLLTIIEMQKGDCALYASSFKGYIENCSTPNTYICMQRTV

T3: human CLEC12A on cells (HL60, PL21, Ba/F3-hCLEC12A) (human, UniProt Q5QGZ9 1-265)
T3 construct: Endogenous on the AML lines HL60 and PL21; brought into mouse Ba/F3 cells by retroviral transduction; The cell line stands under assay; also called CLL-1
T3 sequence: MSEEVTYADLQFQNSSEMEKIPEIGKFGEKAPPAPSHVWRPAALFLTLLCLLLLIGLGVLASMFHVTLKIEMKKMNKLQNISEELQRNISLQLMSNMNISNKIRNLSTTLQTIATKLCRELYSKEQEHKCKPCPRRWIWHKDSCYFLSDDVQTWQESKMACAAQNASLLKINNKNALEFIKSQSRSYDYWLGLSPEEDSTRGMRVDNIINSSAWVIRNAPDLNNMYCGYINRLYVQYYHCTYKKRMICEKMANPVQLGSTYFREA

B1: F3'-1602 TriNKET (bispecific antibody, human IgG1, kappa)
chain: QLQLQESGPGLVKPSETLSLTCTVSGFSLTNYGLHWIRQPPGKCLEWIGVIWSGGKTDYNPSLKSRVTISKDTSKNQFSLKLSSVQAADTAVYYCAKYDYDDSLDYWGQGTLVTVSSGGGGSGGGGSGGGGSGGGGSDIQMTQSPSSLSASVGDRVTITCHASQNINFWLSWYQQKPGKAPKLLIYEASNLHTGVPSRFSGSGSGTRFTLTISSLQPEDIATYYCQQSHSYPLTFGCGTKLEIKGSDKTHTCPPCPAPELLGGPSVFLFPPKPKDTLMISRTPEVTCVVVDVSHEDPEVKFNWYVDGVEVHNAKTKPREEQYNSTYRVVSVLTVLHQDWLNGKEYKCKVSNKALPAPIEKTISKAKGQPREPRVYTLPPCRDELTKNQVSLTCLVKGFYPSDIAVEWESNGQPENNYKTTPPVLVSDGSFTLYSKLTVDKSRWQQGNVFSCSVMHEALHNHYTQKSLSLSPG
heavy: EVQLVESGGGLVKPGGSLRLSCAASGFTFSSYSMNWVRQAPGKGLEWVSSISSSSSYIYYADSVKGRFTISRDNAKNSLYLQMNSLRAEDTAVYYCARGAPIGAAAGWFDPWGQGTLVTVSSASTKGPSVFPLAPSSKSTSGGTAALGCLVKDYFPEPVTVSWNSGALTSGVHTFPAVLQSSGLYSLSSVVTVPSSSLGTQTYICNVNHKPSNTKVDKKVEPKSCDKTHTCPPCPAPELLGGPSVFLFPPKPKDTLMISRTPEVTCVVVDVSHEDPEVKFNWYVDGVEVHNAKTKPREEQYNSTYRVVSVLTVLHQDWLNGKEYKCKVSNKALPAPIEKTISKAKGQPREPQVCTLPPSRDELTENQVSLTCLVKGFYPSDIAVEWESNGQPENNYKTTPPVLDSDGSFFLYSWLTVDKSRWQQGNVFSCSVMHEALHNHYTQKSLSLSPG
light: DIQMTQSPSSVSASVGDRVTITCRASQGISSWLAWYQQKPGKAPKLLIYAASSLQSGVPSRFSGSGSGTDFTLTISSLQPEDFATYYCQQGVSFPRTFGGGTKVEIKRTVAAPSVFIFPPSDEQLKSGTASVVCLLNNFYPREAKVQWKVDNALQSGNSQESVTEQDSKDSTYSLSSTLTLSKADYEKHKVYACEVTHQGLSSPVTKSFNRGEC
notes: Trispecific F3' format: CLEC12A scFv-Fc paired with NKG2D Fab-Fc; Stressed and control samples of the stability studies are the same molecule; also called AB0237
B2: AB0192 TriNKET (other)
chain: EVQLVESGGGVVQPGGSLRLSCAASGFTFNAFGMHWVRQAPGKCLEWVAFISSGSTSIYYANTVKGRFTISRDNSKNTLYLQMNSLRAEDTAVYYCARDGYPTGGAMDYWGQGTSVTVSSGGGGSGGGGSGGGGSGGGGSDIQMTQSPSSLSASVGDRVTITCKASQDIYNYLSWFQQKPGKAPKPLIYRANILVSGVPSRFSGSGSGQDYTFTISSLQPEDIATYYCLQFDAFPFTFGCGTKLEIKGSDKTHTCPPCPAPELLGGPSVFLFPPKPKDTLMISRTPEVTCVVVDVSHEDPEVKFNWYVDGVEVHNAKTKPREEQYNSTYRVVSVLTVLHQDWLNGKEYKCKVSNKALPAPIEKTISKAKGQPREPRVYTLPPCRDELTKNQVSLTCLVKGFYPSDIAVEWESNGQPENNYKTTPPVLVSDGSFTLYSKLTVDKSRWQQGNVFSCSVMHEALHNHYTQKSLSLSPG
heavy: EVQLVESGGGLVKPGGSLRLSCAASGFTFSSYSMNWVRQAPGKGLEWVSSISSSSSYIYYADSVKGRFTISRDNAKNSLYLQMNSLRAEDTAVYYCARGAPIGAAAGWFDPWGQGTLVTVSSASTKGPSVFPLAPSSKSTSGGTAALGCLVKDYFPEPVTVSWNSGALTSGVHTFPAVLQSSGLYSLSSVVTVPSSSLGTQTYICNVNHKPSNTKVDKKVEPKSCDKTHTCPPCPAPELLGGPSVFLFPPKPKDTLMISRTPEVTCVVVDVSHEDPEVKFNWYVDGVEVHNAKTKPREEQYNSTYRVVSVLTVLHQDWLNGKEYKCKVSNKALPAPIEKTISKAKGQPREPQVCTLPPSRDELTENQVSLTCLVKGFYPSDIAVEWESNGQPENNYKTTPPVLDSDGSFFLYSWLTVDKSRWQQGNVFSCSVMHEALHNHYTQKSLSLSPG
light: DIQMTQSPSSVSASVGDRVTITCRASQGISSWLAWYQQKPGKAPKLLIYAASSLQSGVPSRFSGSGSGTDFTLTISSLQPEDFATYYCQQGVSFPRTFGGGTKVEIKRTVAAPSVFIFPPSDEQLKSGTASVVCLLNNFYPREAKVQWKVDNALQSGNSQESVTEQDSKDSTYSLSSTLTLSKADYEKHKVYACEVTHQGLSSPVTKSFNRGEC
notes: the condition stands under assay; also called AB0192 Lot AB0192-005

Tests used:
Human CLEC12A-His [1] = molecular target: T1, Human CLEC12A-His; assay: SPR Biacore 8K 37 C; TriNKET captured on anti-hFc chip, hCLEC12A-His as analyte; 1:1 fit; after 2 wks 40 C at pH 8.0, n=2
mFc-hNKG2D = molecular target: T2, mFc-hNKG2D; assay: SPR Biacore 8K 37 C; mFc-hNKG2D captured on anti-mFc chip, TriNKET as analyte; 1:1 kinetic fit; average of 4
Description: Association was monitored for 60 seconds, and dissociation was monitored for 60 seconds. Surfaces were regenerated between cycles with three pulses of 10 mM glycine-HCl (pH 1.7) injected for 20 seconds at 100 μL/min.
Two different fits were utilized to obtain the equilibrium affinity data: steady state affinity fit and kinetic fit.

Human CLEC12A-His [2] = molecular target: T1, Human CLEC12A-His; assay: SPR Biacore 8K 37 C; TriNKET captured on anti-hFc chip, hCLEC12A-His as analyte; 1:1 fit; after 2 wks 40 C at pH 5.0, n=2
[3] = molecular target: T3, human CLEC12A on cells (HL60, PL21, …); assay: flow cytometry, Ba/F3-hCLEC12A cells
Description: 100,000 cells were seeded per well into a 96-well plate for FACS staining. Cells were washed with PBS. Cells were incubated in a 1:2000 dilution of live/dead dye in PBS for 15 minutes, then washed with FACS buffer. TriNKETs or mAbs were diluted into FACS buffer, and 50 μl containing diluted TriNKET or mAb was added to cells. Cells were incubated on ice for 20 minutes. After the incubation, cells were washed with FACS buffer. Anti-human IgG-Fc secondary antibody was diluted into FACS buffer, and 50 μl was added per well for detection of the bound TriNKETs or mAbs. Cells were incubated for 20 minutes on ice, then washed with FACS buffer. 50 μl of fixation buffer was added to each well, and cells were incubated for 10 minutes at room temperature. Cells were washed with FACS buffer and resuspended in FACS buffer for analysis with BD FACS Celesta SN #H66034400085, or BD FACS Celesta SN #H66034400160. Cells of interest were identified using FSC vs. SSC plot, and an appropriately shaped gate was drawn around the cells. Within the gated cells, doublet cells were removed by viewing FSC-H vs FSC-A plot. Within the single cell population, live cells were gated. Within the live gate, the mean fluorescence intensity (MFI) of each sample and the secondary-only control was calculated. Fold-over-background (FOB) was calculated as the ratio of test article MFI over secondary-only background MFI. Data were fit to a four-parameter non-linear regression curve using GraphPad Prism 7.0.

Human CD16a V158 = molecular target: T4, Human CD16a V158 (human, UniProt P08637 17-208, biotinylated); assay: SPR, hCD16a V158 captured, kinetic fit
T4 construct: Bought recombinant receptor; also called hCD16a (V158); hFcγRIIIa V158
T4 sequence (P08637 17-208 F176V limits assumed): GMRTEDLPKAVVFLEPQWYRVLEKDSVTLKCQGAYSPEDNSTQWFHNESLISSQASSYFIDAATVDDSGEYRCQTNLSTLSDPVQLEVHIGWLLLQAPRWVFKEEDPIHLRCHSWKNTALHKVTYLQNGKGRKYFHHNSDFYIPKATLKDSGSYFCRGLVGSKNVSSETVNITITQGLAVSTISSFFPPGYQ

Row | Binder | Kd (Human CLEC12A-His [1]) [µM] | koff (Human CLEC12A-His [1]) [s⁻¹] | kon (Human CLEC12A-His [1]) [M⁻¹ s⁻¹] | koff (mFc-hNKG2D) [s⁻¹] | kon (mFc-hNKG2D) [M⁻¹ s⁻¹] | Kd (Human CLEC12A-His [2]) [µM] | koff (Human CLEC12A-His [2]) [s⁻¹] | kon (Human CLEC12A-His [2]) [M⁻¹ s⁻¹] | EC50 [3] [µM] | FOB (fold over background) [3] [fold] | Kd (Human CD16a V158) | koff (Human CD16a V158) | kon (Human CD16a V158)
1 | B1 | 0.001 | 0.000845 | 835000 | 0.13 | 180000 | 0.00101 | 0.000871 | 865000 | – | – | – | – | –
2 | B2 | – | – | – | – | – | – | – | – | 0.00133 | 325 | 0.184 µM and 0.173 µM and 0.177 µM | 0.019 s⁻¹ and 0.0201 s⁻¹ and 0.0206 s⁻¹ | 103000 M⁻¹ s⁻¹ and 116000 M⁻¹ s⁻¹
